From publication PMC6955313 (Proceedings of the National Academy of Sciences of the …, 2019)

Molecular target: the molecule itself
Experiment: time-resolved SAXS/diffraction

B1: RsaA_(Full-Length), the 98-kDa surface-layer protein (SLP) from Caulobacter crescentus (natural protein)
chain: MAYTTAQLVTAYTNANLGKAPDAATTLTLDAYATQTQTGGLSDAAALTNTLKLVNSTTAVAIQTYQFFTGVAPSAAGLDFLVDSTTNTNDLNDAYYSKFAQENRFINFSINLATGAGAGATAFAAAYTGVSYAQTVATAYDKIIGNAVATAAGVDVAAAVAFLSRQANIDYLTAFVRANTPFTAAADIDLAVKAALIGTILNAATVSGIGGYATATAAMINDLSDGALSTDNAAGVNLFTAYPSSGVSGSTLSLTTGTDTLTGTANNDTFVAGEVAGAATLTVGDTLSGGAGTDVLNWVQAAAVTALPTGVTISGIETMNVTSGAAITLNTSSGVTGLTALNTNTSGAAQTVTAGAGQNLTATTAAQAANNVAVDGGANVTVASTGVTSGTTTVGANSAASGTVSVSVANSSTTTTGAIAVTGGTAVTVAQTAGNAVNTTLTQADVTVTGNSSTTAVTVTQTAAATAGATVAGRVNGAVTITDSAAASATTAGKIATVTLGSFGAATIDSSALTTVNLSGTGTSLGIGRGALTATPTANTLTLNVNGLTTTGAITDSEAAADDGFTTINIAGSTASSTIASLVAADATTLNISGDARVTITSHTAAALTGITVTNSVGATLGAELATGLVFTGGAGADSILLGATTKAIVMGAGDDTVTVSSATLGAGGSVNGGDGTDVLVANVNGSSFSADPAFGGFETLRVAGAAAQGSHNANGFTALQLGATAGATTFTNVAVNVGLTVLAAPTGTTTVTLANATGTSDVFNLTLSSSAALAAGTVALAGVETVNIAATDTNTTAHVDTLTLQATSAKSIVVTGNAGLNLTNTGNTAVTSFDASAVTGTGSAVTFVSANTTVGEVVTIRGGAGADSLTGSATANDTIIGGAGADTLVYTGGTDTFTGGTGADIFDINAIGTSTAFVTITDAAVGDKLDLVGISTNGAIADGAFGAAVTLGAAATLAQYLDAAAAGDGSGTSVAKWFQFGGDTYVVVDSSAGATFVSGADAVIKLTGLVTLTTSAFATEVLTLA
Q: Does B1 bind?
A: binds
